Assay: yeast display, Sf9 membrane polyspecificity reagent, FACS + sequencing; frameworks hold sequencing errors
In short: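 After 36–48 hours of galactose induction, yeast (Saccharomyces cerevisiae BJ5465) displaying a synthetic nanobody library were stained at 4 °C for 1 hour with 10% biotinylated, detergent-solubilized Sf9 membrane reagent. Streptavidin microbeads enriched the stained cells before FACS sorting into low and high (top ~1%) gates on anti-HA and streptavidin fluorescence. Each clone's polyreactivity label reflects its gate of origin.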

Sequence | polyreactivity (PSR sort gate)
QVQLVESGGGLVQAGGSLRLSCAASGRTFADYVMGWYRQAPGKERELVAAITSSGGSTYYADSVKGRFTISRDNAKNTVYLQMNSLKPEDTAVYYCAAQQSPSVDYWGQGTQVTVSS | low polyreactivity
QVQLVESGGGLVQAGGSLRLSCAASGFIFGTYAMGWYRQAPGKERELVAAISSGGSTYYADSVKGRFTISRDNAKNTVYLQMNSLKPEDTAVYYCAKEGGTYRIFNYWGQGTQVTVSS | low polyreactivity
QVQLVESGGGLVQAGGSLRLSCAASGRTLARYAMGGYRQAPGKERELVAAISSSGGSTYYADSVKGRFTISRDNAKNTVYLQMNSLKPEDTAVYYCAAGWRYRYFRSRNFYPYYYWGQGTQVTVSS | high polyreactivity
QDQLVESGGGLVHAGGSHRFSCAASGFTFGAYAMGWSRQAPGKERELVATITNSGRTYYADSVKGRFTISRDNAKNTVYLQMNSLKPEDTAVYYCAAQPDGQAMEHWGQGTQVTVSS | low polyreactivity
QVQLVESGGGLVQAGGSLRLTCAASGIIFQNYAMGWYRQAPGKERELVAGITGRGGITYYTDSVKGRFTISRDNAKNTVYVQMNSLKPEDTAVSSCAARRYRFAGDYRMYYWGQGTQVTVSS | high polyreactivity
QVQLVESGGGLVLAGGSLRLSCAASGNTFRYYAMGWYRQAPGKERELVADITIGGSTYYADSVKGRFTISRDNAKNTVYLQMNSLKPEDTAVYYCATDPDWGYYDAPYGYWGQGTQVTVSS | low polyreactivity
QVQLVESGGGLVQAGGSLRFSCAASGPIFYNNAMGGYRQAPGKERELHAAISYSGGRTYYADSVKGRFTISRDNAKNTVYLQMNSLKPEDTAVYYCATRYARTAYIRSEYWGQGTQVTVSS | high polyreactivity
QVQLVESGGGLVQAGGSLRLSCAASGRTLYRYAMGWYRQAPGKERELVATITTGGSTNYADSVKGRFTISRDNAKNTVYLQMNSLKPEDTAVYYCNAGILSRWVRKYYYWGQGTQVTVSS | low polyreactivity
QVQLEESGGGLVQEGGSLRLSCSASGRTFRYAMGWYRQAPGKERELVAAISWRGGSTFYADSVKGRFTISRDNAKNTVYLQMNSLKPEDTAVYYCATEFRYHYLSTWSWRYYYWGQGTQVTVSS | low polyreactivity
KVHLVESGGGLVQAGGSLRLSCAASGRIFRYYAMGWYRHAPGKERELVAAIRYLGASTYYADSVKGRFTISRDNAKNTVYLQMNSLKPEDTAVYYCNRTPRSKGNYWGQGTLVTVSS | high polyreactivity
QVQLVESGGGLVQAGGSLRLSCAASGRIFPSYAMGWYRQAPGKERELVAAISRSGGRTYYADSVKGRFTISRDNAKNTVYLQMNSLKPEDTAVYYCYPYYIASTFDYWGQGTQVTVSS | high polyreactivity
QVQLVESGGGLVQAGGSLRLSCAASGSIFPPYAMGWYRQAPGKERELVATITIRGGSTYYADSVKGRFTISRDNAKNSVYLQMNSLKPEDTAVYYCAADYTKYYRRYYYWGQGTQVTVSS | high polyreactivity
QFQLVESGGGLVQAGGSLRLSCAASGRTFAWNAMGWYRQAPGKERELVAAISYNGGRTYYADSVKGRFTISRDNAKNTVYFQMNSLKPEDTAVYYCAAQRYGYWGQGTQVTVSS | high polyreactivity
QVQLVESGGGLVQARGSLRLSCASSGITFWKYTMGCYRQAPGKESELVASIRIGGSTYYADSVKGRFTISRDNAKNTVYLQMNSLKPEDTAVYYCAAKGIYGLQGSPRSGYYYWGQGTQVTVSS | high polyreactivity
QVQLVESGGGLVQAGGSLRLSCAASGITFAVYAMGWYRQAPGKERELVAAITRGGGSTYYADSVKGRFSISRDNAKNTVYLQMNSLKPEHTAVYYCNADSIPEGNSRYSHFDYWGQGTQVTVSS | low polyreactivity
QVQLVESGGGLVQAGGSLRLSCAASGITFSVNAMGWYRQAPGKERELVASISSGGSTNYADSVKGRFTISRDNAKNTVYLQMNSLKPEDTAVYYCAVAYYPHGREGAHFQYGYDYWGQGTQVTVSS | low polyreactivity

Sequence | polyreactivity (PSR sort gate)
QVQLVESGGGLVQAGGSLRLSCAASGRIFIPYAMGWYRQAPGKERELVAVISWNGGSTYYADSVKGRFTISRDNAKNTVYLQMNSLKPEDTAVYYCAADTYPYAKMDYWGQGTQVTVSS | low polyreactivity
QDQLVESGGGLVQAGGSLRLSCAASGFTFVINDMGWYRQAPGKERELVADITSGGDTYYADSVKGRFTISRDNAKNTDYLQMNSLKPEDTAVYYCAADIYPDWIYLLYGYWGQGTQVTVSS | low polyreactivity
QVQLVESGGGLVQAGGSLRLSCAATGRTFRIYAMGWYRQAPGKEREFVAAITWSGGRTYYADSVKGRFTISRDNAKNTVYLQMNSLKPEDTAVYYCAADPTYLRTLRFGSYDYWGQGTQVTVSS | high polyreactivity
QVQLVESGGGLVQAGGSLRLSCAASGRIFGTNAMGWYRQAPGKERELVAAITWRGGSTYYADSVKGRFTISRDNAKNTVYLQMNSLKPVDTAVYYCAKDLVYWYQTIRAGISNYWGQGTQVTVSS | low polyreactivity
QVQLVESGGGLVQAGGSLRLSCAASGRILTSNAMGWYRQAPGKERELVAAITYSGDSTYYADSVKGRFTISRDTAKNTVYLQMNSLKPEDTEVYYCAADVLKHFYSFGDERGFPFDYWGQGTQVTVSS | low polyreactivity
QVQLVESGVGLVQAGGSLRLSCAASGSIINFYAMGLYRQAPGKERELVAAINYNDINTYYADSVKGRFTISRDNAKNTVYLQMNSLKPEDTAVYYCNAELNVQYLYGYTGEYDYWGQGTQVTVSS | low polyreactivity
QVQLVESGGGLVQAGGSLRLSCAASGSTFAWYAMGWYRQAPGKGEFVAGISDSGGRTYYADSVKGRFTISRDNAKNTVYLQMNSLKPEDTAVYYCAAGDHYYRYAYRRGYWGQGTQVTVSS | low polyreactivity
QVQLVESGGGLVQAGGSLRLSCAASGFTFTAYAMGWYRQAPGKERELVAAINWSGSRTYYADSVKGRFTISRDNAKNTVYLQMNSLKPEDTAVYYCNTATSKSSYRHYDYWGQGTQVTVSS | high polyreactivity
QVQLVESGGGLVQAGGSLRISCAASGSIFQFNAMGWSRQAPGKERELVASISASGGSTYYADSVKGRFTISRDNAKNTVYLQMNSLKPEDTAVYYCAADFIRSWFIWRGSFDYWGLGTQVTVSS | low polyreactivity
QDQLVESVVCLVQAGLSLRLSGASSVRIFRYYAMGWYRQAHGKERELVAAINSDGRTYYADSVKGRFTISRDNANNTVYLQMNSLKPEDTAVYYCAADHHSYRYGGYYYWGQGTQVTVAS | low polyreactivity
QVQLVESGGGLVQAGGSLRLSCAASGSNFSYYTMGWYRQAPGKERELVAAISTSGGSTYYADSVKGRFTISRDNAKNTVYLQMNSLKPEDTAVYYCAARYGRYYKYNYWGQGTQVTVSS | high polyreactivity
QVQLVESGGGLVQAGGSLRLSCAASGSIFPYYAMGWYRQAPGKERELVAAITYIGGDTYYADSVKGRFTISRDNAKNTVYLQMNSLKPEETEVYYCNRPSSLAWPWTGSFSRYDYWGQGTQVTVSS | low polyreactivity
PDQLVESGGGLVQAGGSLRLSCAASGLNFYDNMGWYIQATGKERELVSAISSSGGSTSYADSVKGRFTISRDNAKNTVYLQMNSLKPEDTAVYYCAADSSPAYLGFVGFDYWGHGTQVTVSS | low polyreactivity
QVQLVESAGGLVQAGGSLRLSCAASGRTFGRYAMGGYRQAPGKERELVAGISGSVGITYYADSVKGRFTISRDNAKNTVYLQMNSLKPEDTAVYYCAVVARAGHKYDYWGQGTQVTVSS | low polyreactivity
QVQLVESGGGLVQAGGSLRLSCAASARIFVPYARGWYRQAPGKERELVAAIRKSGGSTYYADSVKGRFTISRDNAKNTVYLQMNSLKPDVTAVYYCAASTLGMVQTQPGKRKTYLYGYWGQGTQVTVSS | high polyreactivity

Source: the nanobody polyreactivity screen of Harvey et al. (2022)
